US12545745B2, “Method for treating a degenerative neurological disorders comprising administering ASM inhibitor” (KYUNGPOOK NATIONAL UNIVERSITY INDUSTRY-ACADEMIC COOPERATION …, priority 2013, dated 2026)

Key:
Type in all cases: in vivo, mouse
APP/PS1 mice = experiment: Morris water maze (MWM) test in APP/PS1 mice; conditions: 50 mg/kg i.p. twice weekly, vs PBS, FIG. 55A-55C
Description: More specifically, wild type mice, APP/PS1/ASM^+/− mice, ASM^+/− mice and APP/PS1 mice were used. The mice were given four trials per day for 10 days to learn the task, and on day 11, the mice were given a probe trial in which the platform was removed. The escape latency during the test period and the time spent in the target platform on day 11 were measured. The results are illustrated in FIG. 7 and FIG. 8.
(§1) MWM (Morris water maze) experiments were performed in a conventional manner to identify potential effects on learning and memory. Briefly, for the MWM test, mouse were learned the task four times a day for 10 days, followed by the removal of the platform on the 11th day and subsequently a probe trial performed.
as §1, with “mice” for “mouse”

[1] = test system: ALS animal model (FUS R521C); experiment: Motor function tests (Tail suspension, Hanging wire, Rotarod) in ALS animal model; conditions: ALS mice, 50 mg/kg i.p. twice weekly, vs PBS, FIG. 57A-57C
[2] = test system: depression-induced animal model (WT/RSD); experiment: Depression behaviour tests (Open field, Dark & Light, Tail suspension, Force swim) in RSD mice; conditions: 50 mg/kg i.p. twice weekly, vs PBS, FIG. 59A-59D
Description: For depression-induced animal model, C57BL/6 mice (Charles River, UK) were used as those with depression by inducing Repeated Social Defeat (RSD) stress for 10 days. Repeated Social Defeat (RSD) stress was induced by placing two male, 6-8 week-old C57BL/6 mice with one male, 6-8 week-old CD-1 mouse (aggressive intruder mouse) in the same cage for 10 days, 2 hours daily. After 10 days, depression of C57BL/6 mice was confirmed through the depression behavior test. To confirm the therapeutic effect of ASM inhibitor (Smpd1 miR RNAi) in the depressed animal model, 6-week-old male C57BL/6 mice were injected with said ASM inhibitor via tail vein injection twice weekly in a dosage of 50 μg/mice for 4 weeks prior to the induction of depression. Four weeks later, behavioral analysis was performed after inducing Repeated Social Defeat (RSD) stress for 10 days, followed by obtaining plasma samples of the mice (FIG. 47A). To determine whether ASM inhibition by Smpd1 miR RNAi injection leads to the improvement of depression in a depression-induced animal model, an Open field test, a Dark & Light test, a Tail suspension test and Force swim test were performed, respectively. For depression-induced animal model, C57BL/6 mice (Charles River, UK) were used as those with depression by inducing Repeated Social Defeat (RSD) stress for 10 days. […]

astrocytes and microglia = experiment: Neuroinflammation in brain of APP/PS1 mice (GFAP, Iba-1 staining, cytokine real-time PCR); conditions: cerebral medulla and hippocampus, vs PBS
Description: After fixing the cerebral and hippocampal tissues of the mice, 0.5% thioflavin S (Sigma-Aldrich), anti-20G10 antibodies (mouse, 1:1000) against Aβ42, anti-G30 antibodies (rabbit, […]) against Aβ40, anti-GFAP antibodies (rabbit, 1:500, DAKO), or anti-Iba-1 antibodies (rabbit, 1:500, Wako) were co-cultured. The tissues were analyzed using a laser scanning confocal microscope equipped with Fluoview SV1000 imaging software (Olympus FV1000, Japan) or an Olympus BX51 microscope. Percentage of stained area to total tissue area was quantified and analyzed using Metamorph software (Molecular Devices).
To quantify the expression levels of inflammatory cytokines (TNF-α, […] and IL-6), real-time quantitative PCR was used. […] Also, using Corbett research RG-6000 real-time PCR instrument, real-time quantitative PCR was performed with repeated 40 cycle (one cycle consisting of 95° C., 10 minutes; 95° C., 10 seconds; 58° C., 15 seconds; 72° C., 20 seconds). […]
After fixing the mouse brain and hippocampus, 0.5% thioflavin S (Sigma-Aldrich), anti-GFAP (rabbit, 1:500, DAKO), and anti-Iba-1 (rabbit, 1:500, WAKO) were co-cultured together. The regions were analyzed using a laser scanning confocal microscope equipped with Fluoview SV1000 imaging software (Olympus FV1000, Japan) or an Olympus BX51 microscope. […]

B1: ASM-ab 23A12C3: self-made monoclonal ASM antibody, Koma biotech; heavy chain SEQ ID NO. 29, light chain SEQ ID NO. 30 (antibody)
heavy: MGWSWIFLFLLSGTAGVHSEVQLQQSGPVLVKPGASVKMSCKASGYTFTDYYMNWVKQSHGKSLEWIGVINPYNDGTSYNQKFKGKATLTVDKSSSTAYMELNSLTSEDSAVYYCAREKLYYYGRDYAMDYWGQGTSVTVSSAKTTPPSVYPLAPGSAAQTNSMVTLGCLVKGYFPEPVTVTWNSGSLSSGVHTFPAVLQSDLYTLSSSVTVPSSTWPSQTVTCNVAHPASSTKVDKKIVPRDCGCKPCICTVPEVSSVFIFPPKPKDVLTITLTPKVTCVVVDISKDDPEVQFSWFVDDVEVHTAQTKPREEQINSTFRSVSELPIMHQDWLNGKEFKCRVNSAAFPAPIEKTISKTKGRPKAPQVYTIPPPKEQMAKDKVSLTCMITNFFPEDITVEWQWNGQPAENYKNTQPIMDTDGSYFVYSKLNVQKSNWEAGNTFTCSVLHEGLHNHHTEKSLSHSPGK
light: MSSAQFLGLLLLCFQGTRCDIQMTQTTSSLSASLGDRVTISCRSSQDISNYLNWCQQKPDGTVKLLIYYTSRLHSGVPSRFSGSGSGTDYSLTISNLEQEDIATYFCQQDNTLPYTFGGGTKLEIKRADAAPTVSIFPPSSEQLTSGGASVVCFLNNFYPKDINVKWKIDGSERQNGVLNSWTDQDSKDSTYSMSSTLTLTKDEYERHNSYTCEATHKTSTSPIVKSFNRNEC
modifications: 23A12C3_Heavy chain; 23A12C3_Light chain
notes: self-made monoclonal ASM antibody, Koma biotech; 30
- impairments in spatial memory, cognition and memory formation (MWM) (APP/PS1 mice): improved
- impairment in motor function [1]: improved
- symptoms of depression [2]: significantly improve
- activity of microglia (Iba-1) (astrocytes and microglia; FIG. 54A): significantly reduced
- activity of astrocytes (GFAP) (astrocytes and microglia; FIG. 54B): significantly reduced
